Measured values: paper PMC4522657, “Identification of a DYRK1A Inhibitor that Induces Degradation of the Target Kinase using Co-chaperone CDC37 fused with Luciferase nanoKAZ” (Scientific Reports, 2015)
Blank lines part the entries; values can stand above or below the substance they belong to.

Experiments:
[1] = target: HSP90β (nanoKAZ-HSP90β) (UniProt P08238); assay: anti-FLAG plate capture, luciferase-fusion luminescence; conditions: reference: wild type
[2] = target: CDC37 (CDC37-nanoKAZ) (UniProt Q16543); assay: as above; conditions: reference: wild type

- fold change ([1]; sites Y319,Y321): 3.8
- fold change ([2]; sites Y319,Y321): 8
Substance: DYRK1A (from UniProt Q13627) Y319F/Y321F

- fold change ([2]; sites Y159): 8.4
Substance: DYRK1A (from UniProt Q13627) Y159F

- fold change ([2]; sites Y145,Y147): 2.4
Substance: DYRK1A (from UniProt Q13627) Y145F/Y147F

- fold change ([2]; sites Y111): 1.4
Substance: DYRK1A (from UniProt Q13627) Y111F

- fold change [1]: 10
- fold change [2]: 17
Substance: DYRK1A (from UniProt Q13627) K188R kinase-dead (no autophosphorylation)
